From PMC8661717 (Protein Science : A Publication of the Protein Society, 2021)

T1: Pol α catalytic subunit (334-1462), as subunit of the truncated human primosome (human, UniProt P09884 334-1462)
T1 construct: also called DNA polymerase α; catalytic subunit of Pol α
T1 sequence (looked up): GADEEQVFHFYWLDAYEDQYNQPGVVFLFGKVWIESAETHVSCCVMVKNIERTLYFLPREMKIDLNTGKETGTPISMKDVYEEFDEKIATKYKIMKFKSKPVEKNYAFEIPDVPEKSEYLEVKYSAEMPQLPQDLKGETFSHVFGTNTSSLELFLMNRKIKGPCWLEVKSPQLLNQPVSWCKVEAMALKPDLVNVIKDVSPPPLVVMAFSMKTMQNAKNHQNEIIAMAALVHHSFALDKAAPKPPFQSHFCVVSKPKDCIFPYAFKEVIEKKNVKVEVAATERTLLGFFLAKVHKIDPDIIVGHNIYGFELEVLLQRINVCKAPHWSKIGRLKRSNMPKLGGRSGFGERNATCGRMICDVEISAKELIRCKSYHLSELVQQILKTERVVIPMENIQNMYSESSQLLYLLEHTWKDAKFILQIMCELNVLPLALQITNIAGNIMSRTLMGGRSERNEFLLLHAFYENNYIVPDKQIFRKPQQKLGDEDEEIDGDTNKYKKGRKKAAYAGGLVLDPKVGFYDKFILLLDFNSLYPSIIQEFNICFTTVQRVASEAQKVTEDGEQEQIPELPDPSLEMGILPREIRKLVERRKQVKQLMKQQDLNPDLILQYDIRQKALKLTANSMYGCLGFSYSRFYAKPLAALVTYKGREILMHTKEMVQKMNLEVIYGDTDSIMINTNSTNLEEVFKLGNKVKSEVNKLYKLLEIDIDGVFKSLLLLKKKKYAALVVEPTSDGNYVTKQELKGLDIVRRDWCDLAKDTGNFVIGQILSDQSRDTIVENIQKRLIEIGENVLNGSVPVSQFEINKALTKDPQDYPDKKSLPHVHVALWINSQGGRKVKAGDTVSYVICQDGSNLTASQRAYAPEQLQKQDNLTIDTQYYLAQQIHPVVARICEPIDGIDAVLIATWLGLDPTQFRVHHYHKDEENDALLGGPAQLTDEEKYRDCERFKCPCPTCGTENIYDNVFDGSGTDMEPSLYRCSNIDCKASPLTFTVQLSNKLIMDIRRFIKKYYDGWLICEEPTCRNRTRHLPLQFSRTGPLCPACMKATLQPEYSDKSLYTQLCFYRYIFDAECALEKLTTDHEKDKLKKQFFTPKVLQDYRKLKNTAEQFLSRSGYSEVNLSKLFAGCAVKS

B1: SARS-CoV nsp1 (13-127), His6-MBP tag cleaved (domain or fragment)
chain: HVQLSLPVLQVRDVLVRGFGDSVEEALSEAREHLKNGTCGLVELEKGVLPQLEQPYVFIKRSDALSTNHGHKVVELVAEMDGIQYGRSGITLGVLVPHVGETPIAYRNVLLRKNG
B2: His6-MBP-tagged SARS-CoV nonstructural protein 1 (nsp1), full length (natural protein)
chain: MESLVLGVNEKTHVQLSLPVLQVRDVLVRGFGDSVEEALSEAREHLKNGTCGLVELEKGVLPQLEQPYVFIKRSDALSTNHGHKVVELVAEMDGIQYGRSGITLGVLVPHVGETPIAYRNVLLRKNGNKGAGGHSYGIDLKSYDLGDELGTDPIEDYEQNWNTKHGSGALRELTRELNGG
B3: His6-MBP-tagged SARS-CoV nsp1 middle domain (13-127) (domain or fragment)
chain: B1 chain
B4: His6-MBP-tagged SARS-CoV-2 nsp1 middle domain (13-127) (domain or fragment)
chain: HVQLSLPVLQVRDVLVRGFGDSVEEVLSEARQHLKDGTCGLVEVEKGVLPQLEQPYVFIKRSDARTAPHGHVMVELVAELEGIQYGRSGETLGVLVPHVGEIPVAYRKVLLRKNG

Tests used:
Conditions in all cases: both partners purified
[1] = target: T2, Truncated human primosome (Pol α 334-1462; B subunit 149-598; PriS 1-420; PriL 1-509) (human, UniProt P09884 334-1462; Q14181 149-598; P49642 1-420; P49643 1-509); test: cryo-EM structure
T2 construct: also called truncated primosome; Pol α–primase

[2] = target: T1, Pol α catalytic subunit (334-1462), as …; test: cryo-EM structure
[3] = target: T3, Full-length human primosome (DNA polymerase α–primase complex) (human, UniProt P09884 1-1462; Q14181 1-598; P49642 1-420; P49643 1-509); test: pull-down
T3 construct: also called Pol α–primase; full-length primosome

[4] = target: T2, Truncated human primosome (Pol α …); test: pull-down

T2 sequence (Q14181 149-598, chain 2 of 3): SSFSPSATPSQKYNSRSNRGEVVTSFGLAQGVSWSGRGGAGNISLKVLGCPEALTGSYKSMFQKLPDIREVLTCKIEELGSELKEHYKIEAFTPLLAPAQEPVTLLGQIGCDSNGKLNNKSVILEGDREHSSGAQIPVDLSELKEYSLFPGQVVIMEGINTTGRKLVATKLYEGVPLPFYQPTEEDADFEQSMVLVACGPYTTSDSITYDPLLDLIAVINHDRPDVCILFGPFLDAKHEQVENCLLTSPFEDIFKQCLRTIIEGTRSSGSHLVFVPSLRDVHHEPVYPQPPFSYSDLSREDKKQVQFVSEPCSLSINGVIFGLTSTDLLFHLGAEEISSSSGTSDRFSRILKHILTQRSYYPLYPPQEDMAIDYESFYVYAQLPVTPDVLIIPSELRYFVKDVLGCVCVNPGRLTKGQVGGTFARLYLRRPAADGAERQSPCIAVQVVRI
T2 sequence (P49642 whole entry, chain 3 of 3, the tested form may be a part): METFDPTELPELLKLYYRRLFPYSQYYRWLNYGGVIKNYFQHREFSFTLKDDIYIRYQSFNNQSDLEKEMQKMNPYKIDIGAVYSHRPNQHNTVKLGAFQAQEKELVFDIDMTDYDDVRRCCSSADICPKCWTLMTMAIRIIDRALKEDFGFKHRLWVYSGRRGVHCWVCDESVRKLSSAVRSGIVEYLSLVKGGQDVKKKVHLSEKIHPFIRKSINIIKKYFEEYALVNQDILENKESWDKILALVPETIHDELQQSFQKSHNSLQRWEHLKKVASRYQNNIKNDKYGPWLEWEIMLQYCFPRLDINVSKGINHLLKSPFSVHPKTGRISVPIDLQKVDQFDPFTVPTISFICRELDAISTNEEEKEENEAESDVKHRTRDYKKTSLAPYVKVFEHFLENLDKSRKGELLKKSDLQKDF
T2 sequence (P49643 whole entry, chain 4 of 3, the tested form may be a part): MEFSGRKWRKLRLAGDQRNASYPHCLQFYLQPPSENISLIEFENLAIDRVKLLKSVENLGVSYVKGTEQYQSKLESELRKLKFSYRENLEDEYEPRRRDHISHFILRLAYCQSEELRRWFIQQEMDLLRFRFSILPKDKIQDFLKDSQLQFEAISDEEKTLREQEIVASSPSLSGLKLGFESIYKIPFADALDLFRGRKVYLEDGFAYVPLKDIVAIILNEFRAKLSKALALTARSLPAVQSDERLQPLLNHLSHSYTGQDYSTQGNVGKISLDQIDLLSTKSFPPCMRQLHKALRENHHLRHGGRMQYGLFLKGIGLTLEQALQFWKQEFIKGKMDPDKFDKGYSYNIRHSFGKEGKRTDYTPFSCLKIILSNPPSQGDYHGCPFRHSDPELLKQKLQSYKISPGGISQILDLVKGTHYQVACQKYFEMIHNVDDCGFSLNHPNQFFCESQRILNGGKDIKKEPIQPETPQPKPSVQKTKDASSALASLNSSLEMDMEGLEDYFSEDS
T3 sequence (Q14181 whole entry, chain 2 of 3): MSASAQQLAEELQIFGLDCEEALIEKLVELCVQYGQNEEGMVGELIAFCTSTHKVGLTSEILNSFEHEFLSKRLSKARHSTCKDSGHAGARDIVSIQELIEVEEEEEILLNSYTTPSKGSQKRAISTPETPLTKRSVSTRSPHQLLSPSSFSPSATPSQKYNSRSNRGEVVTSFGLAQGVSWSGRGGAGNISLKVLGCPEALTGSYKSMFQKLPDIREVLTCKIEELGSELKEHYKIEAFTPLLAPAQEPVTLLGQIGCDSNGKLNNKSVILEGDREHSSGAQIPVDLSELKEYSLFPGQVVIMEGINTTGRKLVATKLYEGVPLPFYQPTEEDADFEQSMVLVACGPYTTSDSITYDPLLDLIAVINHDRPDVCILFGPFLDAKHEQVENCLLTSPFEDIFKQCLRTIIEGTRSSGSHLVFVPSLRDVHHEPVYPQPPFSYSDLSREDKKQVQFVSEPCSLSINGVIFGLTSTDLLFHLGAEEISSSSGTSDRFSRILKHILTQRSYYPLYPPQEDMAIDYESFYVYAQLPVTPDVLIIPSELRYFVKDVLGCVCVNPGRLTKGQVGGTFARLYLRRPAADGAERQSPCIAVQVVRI
T3 sequence (P49642 whole entry, chain 3 of 3): as the sequence (P49642 whole entry, chain 3 of 3, the tested form may be a part) above
T3 sequence (P49643 whole entry, chain 4 of 3): as the sequence (P49643 whole entry, chain 4 of 3, the tested form may be a part) above

Binder	binding result [1]	binding result [2]	binding result [3]	binding result [4]
B1	binds	binds	–	–
B2	–	–	binds	binds
B3	–	–	–	binds
B4	–	–	–	binds
